Source: paper PMC8050300, “The role of S-nitrosylation of PFKM in regulation of glycolysis in ovarian cancer cells” (Cell Death & Disease, 2021)
Values joined by “and” are separate entries in the source; they are usually repeats but may differ in a detail not shown here. Equal entries are not always repeated.

Molecular target: the molecule itself
Experiment: non-reducing SDS-PAGE with western blot; cell extracts separated by non-reducing SDS-PAGE, blot for PFKM tetramer, dimer and monomer; SKOV3 control and OE-NOS1 cells, SKOV3 and OVCAR3 cells with GSNO (1 mM, 30 min) or PBS, SKOV3-PFKM-KO cells (with or without OE-NOS1) reconstituted with Flag-PFKM-WT or C351S

Protein | stoichiometry N
Phosphofructokinase (PFKM), endogenous (enzyme, human (endogenous in SKOV3 and OVCAR3), UniProt P08237-1 1-780, looked up, PFKM, muscle isoform of phosphofructokinase 1, human, endogenous in ovarian cancer cells; also called PFK1 (M isoform); source: endogenous, SKOV3 (control, OE-NOS1) and OVCAR3 cell lysate) MTHEEHHAAKTLGIGKAIAVLTSGGDAQGMNAAVRAVVRVGIFTGARVFFVHEGYQGLVDGGDHIKEATWESVSMMLQLGGTVIGSARCKDFREREGRLRAAYNLVKRGITNLCVIGGDGSLTGADTFRSEWSDLLSDLQKAGKITDEEATKSSYLNIVGLVGSIDNDFCGTDMTIGTDSALHRIMEIVDAITTTAQSHQRTFVLEVMGRHCGYLALVTSLSCGADWVFIPECPPDDDWEEHLCRRLSETRTRGSRLNIIIVAEGAIDKNGKPITSEDIKNLVVKRLGYDTRVTVLGHVQRGGTPSAFDRILGSRMGVEAVMALLEGTPDTPACVVSLSGNQAVRLPLMECVQVTKDVTKAMDEKKFDEALKLRGRSFMNNWEVYKLLAHVRPPVSKSGSHTVAVMNVGAPAAGMNAAVRSTVRIGLIQGNRVLVVHDGFEGLAKGQIEEAGWSYVGGWTGQGGSKLGTKRTLPKKSFEQISANITKFNIQGLVIIGGFEAYTGGLELMEGRKQFDELCIPFVVIPATVSNNVPGSDFSVGADTALNTICTTCDRIKQSAAGTKRRVFIIETMGGYCGYLATMAGLAAGADAAYIFEEPFTIRDLQANVEHLVQKMKTTVKRGLVLRNEKCNENYTTDFIFNLYSEEGKGIFDSRKNVLGHMQQGGSPTPFDRNFATKMGAKAMNWMSGKIKESYRNGRIFANTPDSGCVLGMRKRALVFQPVAELKDQTDFEHRIPKEQWWLKLRPILKILAKYEIDLDTSDHAHLEHITRKRSGEAAV | 4 and 2
Flag-tagged WT human PFK1 (M isoform) (enzyme, UniProt P08237-1 1-780, looked up, human PFK1 (M isoform, PFKM) cDNA (ATCC, NCBI NP_000280.1) in the expression vector PCDNA3.1; the vector section is headed 'for ovarian cancer cells expression'; also called Flag-PFKM; Flag-PFKM-WT; source: SKOV3-PFKM-KO cells, transfected, in lysate) MTHEEHHAAKTLGIGKAIAVLTSGGDAQGMNAAVRAVVRVGIFTGARVFFVHEGYQGLVDGGDHIKEATWESVSMMLQLGGTVIGSARCKDFREREGRLRAAYNLVKRGITNLCVIGGDGSLTGADTFRSEWSDLLSDLQKAGKITDEEATKSSYLNIVGLVGSIDNDFCGTDMTIGTDSALHRIMEIVDAITTTAQSHQRTFVLEVMGRHCGYLALVTSLSCGADWVFIPECPPDDDWEEHLCRRLSETRTRGSRLNIIIVAEGAIDKNGKPITSEDIKNLVVKRLGYDTRVTVLGHVQRGGTPSAFDRILGSRMGVEAVMALLEGTPDTPACVVSLSGNQAVRLPLMECVQVTKDVTKAMDEKKFDEALKLRGRSFMNNWEVYKLLAHVRPPVSKSGSHTVAVMNVGAPAAGMNAAVRSTVRIGLIQGNRVLVVHDGFEGLAKGQIEEAGWSYVGGWTGQGGSKLGTKRTLPKKSFEQISANITKFNIQGLVIIGGFEAYTGGLELMEGRKQFDELCIPFVVIPATVSNNVPGSDFSVGADTALNTICTTCDRIKQSAAGTKRRVFIIETMGGYCGYLATMAGLAAGADAAYIFEEPFTIRDLQANVEHLVQKMKTTVKRGLVLRNEKCNENYTTDFIFNLYSEEGKGIFDSRKNVLGHMQQGGSPTPFDRNFATKMGAKAMNWMSGKIKESYRNGRIFANTPDSGCVLGMRKRALVFQPVAELKDQTDFEHRIPKEQWWLKLRPILKILAKYEIDLDTSDHAHLEHITRKRSGEAAV | 4 and 2
